Assay results: patent US20250206834A1 (published 2025)
Read-outs that look alike come from different tables or passages of the source.

T1: human CEACAM5 on cells (human, UniProt P06731 35-685)
T1 chain: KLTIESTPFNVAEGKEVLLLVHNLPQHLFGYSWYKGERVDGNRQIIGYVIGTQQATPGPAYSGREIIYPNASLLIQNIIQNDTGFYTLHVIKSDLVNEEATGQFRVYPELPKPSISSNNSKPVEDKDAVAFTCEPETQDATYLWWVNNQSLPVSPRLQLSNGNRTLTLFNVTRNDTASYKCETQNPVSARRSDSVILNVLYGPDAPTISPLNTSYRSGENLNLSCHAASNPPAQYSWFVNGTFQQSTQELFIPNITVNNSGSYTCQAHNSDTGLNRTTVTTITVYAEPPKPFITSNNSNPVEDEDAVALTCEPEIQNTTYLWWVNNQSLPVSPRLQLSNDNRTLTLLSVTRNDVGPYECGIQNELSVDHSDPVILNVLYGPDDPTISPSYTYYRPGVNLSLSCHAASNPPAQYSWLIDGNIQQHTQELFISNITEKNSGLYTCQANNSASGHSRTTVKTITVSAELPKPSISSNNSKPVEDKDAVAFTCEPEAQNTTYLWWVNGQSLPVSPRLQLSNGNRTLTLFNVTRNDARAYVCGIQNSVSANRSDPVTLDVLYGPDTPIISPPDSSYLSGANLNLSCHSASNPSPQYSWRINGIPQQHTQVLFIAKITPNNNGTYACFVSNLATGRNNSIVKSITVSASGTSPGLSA


How the values were obtained:
[1] = biological target: T2, human 4-1BB (human, UniProt Q07011 24-255); assay: FACS cell binding
[2] = biological target: T1, human CEACAM5 on cells; assay: FACS cell binding; MKN-45 cells
[3] = biological target: T2, human 4-1BB; assay: FACS cell binding; remark: listed apart in the source
[4] = biological target: T1, human CEACAM5 on cells; assay: FACS cell binding; MKN-45 cells
[5] = biological target: T2, human 4-1BB; assay: FACS cell binding; plot key prints IMMU130-263-1-3

T2 sequence (Q07011 24-255): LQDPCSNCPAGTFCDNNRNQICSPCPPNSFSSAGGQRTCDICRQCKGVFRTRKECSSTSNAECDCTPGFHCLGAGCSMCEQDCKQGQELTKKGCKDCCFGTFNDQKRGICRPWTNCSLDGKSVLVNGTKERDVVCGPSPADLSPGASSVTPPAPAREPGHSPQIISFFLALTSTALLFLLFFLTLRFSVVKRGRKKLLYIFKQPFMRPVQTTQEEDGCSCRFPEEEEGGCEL

Row | Binder | EC50 [1] [nM] | EC50 [2] [nM] | EC50 [3] [nM] | EC50 [4] [nM] | EC50 [5] [nM]
1 | VV02-1LP-263 huNb_1_3 (Fc fusion) VHH: EVQLLESGGGLVQPGGSLRLSCAASGFTFSSSAMSWARQTPGKGFEWVSGIYSGGSTYYTESVKDRFTISRDNSKNTVYLQMNSLKPEDTAVYYCATWGTLRFGVWAEYDHWGQGTQVTVSS | 0.53 |  |  |  | 
2 | IMMU130-263-1-3_1 (bispecific antibody, V domains shown) VH: EVQLVESGGGVVQPGRSLRLSCSASGFDFTTYWMSWVRQAPGKGLEWIGEIHPDSSTINYAPSLKDRFTISRDNAKNTLFLQMDSLRPEDTGVYFCASLYFGFPWFAYWGQGTPVTVSS VL: DIQLTQSPSSLSASVGDRVTITCKASQDVGTSVAWYQQKPGKAPKLLIYWTSTRHTGVPSRFSGSGSGTDFTFTISSLQPEDIATYYCQQYSLYRSFGQGTKVEIK VHH: EVQLVESGGGLVQPGGSLRLSCAASGFTFSSSAMSWARQAPGKGFEWVSGIYSGGSTYYTESVKDRFTISRDNSKNTVYLQMNSLKPEDTAVYYCATWGTLRFGVWAEYDHWGQGTQVTVSS |  | 7.34 |  |  | 
3 | VV02-1SP (1)-73 huNb_1_3 (Fc fusion) VHH: EVDLVESGGGLVQPGGSLRLSCAVSGFTFSSSAMSWARQAPGKEFEWVSSIYSSGKTYYVESVKGRFTISRDNAKNTVYLQMSSLRPEDTAVYYCATWKTLRVGVWDESDYWGQGTLVTVSS |  |  | 0.37 |  | 
4 | IMMU130-263-1-3 (bispecific antibody) heavy (part 1 of 2): EVQLVESGGGVVQPGRSLRLSCSASGFDFTTYWMSWVRQAPGKGLEWIGEIHPDSSTINYAPSLKDRFTISRDNAKNTLFLQMDSLRPEDTGVYFCASLYFGFPWFAYWGQGTPVTVSS heavy (part 2 of 2): GGGGSGGGGSGGGGSGGGGSEVQLLESGGGLVQPGGSLRLSCAASGFTFSSSAMSWARQTPGKGFEWVSGIYSGGSTYYTESVKDRFTISRDNSKNTVYLQMNSLKPEDTAVYYCATWGTLRFGVWAEYDHWGQGTQVTVSS light: DIQLTQSPSSLSASVGDRVTITCKASQDVGTSVAWYQQKPGKAPKLLIYWTSTRHTGVPSRFSGSGSGTDFTFTISSLQPEDIATYYCQQYSLYRSFGQGTKVEIK |  | 8.47 | 0.58 | 5.38 | 1.23
5 | Labetuzumab (antibody, V domains shown) VH: EVQLVESGGGVVQPGRSLRLSCSASGFDFTTYWMSWVRQAPGKGLEWIGEIHPDSSTINYAPSLKDRFTISRDNAKNTLFLQMDSLRPEDTGVYFCASLYFGFPWFAYWGQGTPVTVSS VL: DIQLTQSPSSLSASVGDRVTITCKASQDVGTSVAWYQQKPGKAPKLLIYWTSTRHTGVPSRFSGSGSGTDFTFTISSLQPEDIATYYCQQYSLYRSFGQGTKVEIK |  | 5.31 |  | 3.48 | 
6 | optimized bispecific antibody with 263 huNb-1-3_2 (bispecific antibody) heavy (part 1 of 2): EVQLVESGGGVVQPGRSLRLSCSASGFDFTTYWMSWVRQAPGKGLEWIGEIHPDSSTINYAPSLKDRFTISRDNAKNTLFLQMDSLRPEDTGVYFCASLYFGFPWFAYWGQGTPVTVSS heavy (part 2 of 2): GGGGSGGGGSGGGGSGGGGSEVQLVESGGGLVQPGGSLRLSCAASGFTFSSSAMSWARQAPGKGFEWVSGIYSGGSTYYTESVKDRFTISRDNAKNTVYLQMNSLKPEDTAVYYCATWGTLRFGVWAEYDHWGQGTLVTVSS light: DIQLTQSPSSLSASVGDRVTITCKASQDVGTSVAWYQQKPGKAPKLLIYWTSTRHTGVPSRFSGSGSGTDFTFTISSLQPEDIATYYCQQYSLYRSFGQGTKVEIK | 1.2 | 7.75 |  |  | 
